Experimental data: patent publication US20140087995A1 (published 2014)
Blank lines part the entries; values can stand above or below the binder they belong to. Numbered stars: 1 amine (or outer) side, 2 acyl side, 3 side chain; on linkers, the order of the positions; unused ones are H or OH. Bridge positions count the residues as written; N and C are the ends. Side chains are listed from the residue outwards. Ends that are not written are not given here. * marks the point of attachment. C20 diacid = O=C(O)CCCCCCCCCCCCCCCCCCC(=O)*; γGlu = O=C(O)[C@H](CCC(=O)[*:2])N[*:1]; AEEA = NCCOCCOCC(=O)O

Molecular target: T1, human amylin 3(a) receptor (human calcitonin receptor co-expressed with RAMP-3) (human, UniProt P30988 25-474; O60896 24-148, limits assumed)
T1 sequence (looked up) 1: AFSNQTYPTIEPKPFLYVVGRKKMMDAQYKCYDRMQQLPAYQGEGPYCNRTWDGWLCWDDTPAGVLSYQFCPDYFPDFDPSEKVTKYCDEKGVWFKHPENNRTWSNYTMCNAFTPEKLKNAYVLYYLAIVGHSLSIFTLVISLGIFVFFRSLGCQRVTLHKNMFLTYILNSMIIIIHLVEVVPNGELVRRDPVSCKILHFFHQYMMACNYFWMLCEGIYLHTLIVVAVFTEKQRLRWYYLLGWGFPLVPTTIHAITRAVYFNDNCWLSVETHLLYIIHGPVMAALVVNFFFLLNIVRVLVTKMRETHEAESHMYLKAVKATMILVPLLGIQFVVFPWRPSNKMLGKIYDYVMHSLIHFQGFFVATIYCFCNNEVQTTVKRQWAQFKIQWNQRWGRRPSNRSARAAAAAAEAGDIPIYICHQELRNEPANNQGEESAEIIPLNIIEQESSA
T1 sequence (looked up) 2: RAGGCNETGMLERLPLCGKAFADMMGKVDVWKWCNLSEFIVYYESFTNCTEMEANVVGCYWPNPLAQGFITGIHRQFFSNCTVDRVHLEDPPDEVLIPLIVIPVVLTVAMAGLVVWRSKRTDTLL
Experiment: cell-based or functional assay

Ratio hCT/hAmylin funct.: 1.8
B1: N^ε1-[(4S)--4-carboxy-4-(19-carboxynonadecanoylamino)butanoyl]-[Glu14,Arg17,Pro21,Pro27,Pro37]-h-amylin (peptide)
peptide: K([γGlu-C20 diacid])CNTATCATQRLAEFLRHSSPNFGAIPSSTNVGSNTP-NH2
modifications: disulfide 2-7 (inferred)
notes: also called compound 12

Ratio hCT/hAmylin funct.: 2.2
B5: N^α1-[(4S)-4-carboxy-4-(19-carboxynonadecanoylamino)butanoyl]-[Glu14,Arg17,Pro21,Pro28,Glu35]-h-amylin (peptide)
peptide: {C20 diacid-γGlu}-KCNTATCATQRLAEFLRHSSPNFGAILPSTNVGSETY-NH2
modifications: disulfide 2-7 (inferred)
notes: also called compound 33

Ratio hCT/hAmylin funct.: 3.8
B6: N^α1N^α1-[(4S)-4-carboxy-4-(19-carboxynonadecanoylamino)butanoyl]-[Glu14,Arg17,Pro21,Pro27,Glu35]-h-amylin (peptide)
peptide: {C20 diacid-γGlu}-KCNTATCATQRLAEFLRHSSPNFGAIPSSTNVGSETY-NH2
modifications: disulfide 2-7 (inferred)
notes: also called compound 22

Ratio hCT/hAmylin funct.: 0.9
B8: N^α1-[(4S)-4-carboxy-4-(19-carboxynonadecanoylamino)butanoyl]-[Glu14,Arg17,Pro21,Pro27,Asp35,Pro37]-h-amylin (peptide)
peptide: {C20 diacid-γGlu}-KCNTATCATQRLAEFLRHSSPNFGAIPSSTNVGSDTP-NH2
modifications: disulfide 2-7 (inferred)
notes: also called compound 11

Ratio hCT/hAmylin funct.: 0.8
B9: N^ε1-[(4S)-4-carboxy-4-(19-carboxynonadecanoylamino)butanoyl]-[His14,Arg17,Pro21,Pro27,Pro34,Pro37]-h-amylin (peptide)
peptide: K([γGlu-C20 diacid])CNTATCATQRLAHFLRHSSPNFGAIPSSTNVGPNTP-NH2
modifications: disulfide 2-7 (inferred)

Ratio hCT/hAmylin funct.: 0.9
B10: N^ε1-[(4S)-4-carboxy-4-(19-carboxynonadecanoylamino)butanoyl]-[Glu14,Arg17,Pro21,Pro27,Pro34,Pro37]-h-amylin (peptide)
peptide: K([γGlu-C20 diacid])CNTATCATQRLAEFLRHSSPNFGAIPSSTNVGPNTP-NH2
modifications: disulfide 2-7 (inferred)

Ratio hCT/hAmylin funct.: 1.6
B14: N^α1-[(4S)-4-carboxy-4-[[(4S)-4-carboxy-4-(19-carboxynonadecanoylamino)butanoyl]amino]butanoyl]-[Glu14,Arg17,Pro21,Pro27,Pro37]-h-amylin (peptide)
peptide: {C20 diacid-γGlu-γGlu}-KCNTATCATQRLAEFLRHSSPNFGAIPSSTNVGSNTP-NH2
modifications: disulfide 2-7 (inferred)
notes: also called compound 14

Ratio hCT/hAmylin funct.: 2.2
B15: N^ε1-[(4S)-4-carboxy-4-[[(4S)-4-carboxy-4-(19-carboxynonadecanoylamino)butanoyl]amino]butanoyl]-[Glu14,Arg17,Pro21,Pro27,Pro37]-h-amylin (peptide)
peptide: K([γGlu-γGlu-C20 diacid])CNTATCATQRLAEFLRHSSPNFGAIPSSTNVGSNTP-NH2
modifications: disulfide 2-7 (inferred)
notes: also called compound 13

More lines, now with the values behind:

B2: N^α1-[2-[2-[2-[[2-[2-[2-[[(4S)-4-carboxy-4-(19-carboxynonadecanoylamino)butanoyl]amino]ethoxy]ethoxy]acetyl]amino]ethoxy]ethoxy]acetyl]-[Glu14,Arg17,Pro21,Pro27 … (peptide)
peptide: {C20 diacid-γGlu-AEEA-AEEA}-KCNTATCATQRLAEFLRHSSPNFGAIPSSTNVGSNTP-NH2
modifications: disulfide 2-7 (inferred)
notes: also called compound 20
Ratio hCT/hAmylin funct.: 3.6

B3: N^α1-[(4S)-4-carboxy-4-(19-carboxynonadecanoylamino)butanoyl]-[Glu14,Arg17,Pro21,Pro27,Pro37]-h-amylin (peptide)
peptide: {C20 diacid-γGlu}-KCNTATCATQRLAEFLRHSSPNFGAIPSSTNVGSNTP-NH2
modifications: disulfide 2-7 (inferred)
notes: also called compound 8
Ratio hCT/hAmylin funct.: 1.1

B4: N^α1-[(4S)-4-carboxy-4-(19-carboxynonadecanoylamino)butanoyl]-[Asp14,Arg17,Pro21,Pro27,Pro37]-h-amylin (peptide)
peptide: {C20 diacid-γGlu}-KCNTATCATQRLADFLRHSSPNFGAIPSSTNVGSNTP-NH2
modifications: disulfide 2-7
SMILES: CC[C@H](C)[C@H](NC(=O)[C@H](C)NC(=O)CNC(=O)[C@H](Cc1ccccc1)NC(=O)[C@H](CC(N)=O)NC(=O)[C@@H]1CCCN1C(=O)[C@H](CO)NC(=O)[C@H](CO)NC(=O)[C@H](Cc1c[nH]cn1)NC(=O)[C@H](CCCNC(=N)N)NC(=O)[C@H](CC(C)C)NC(=O)[C@H](Cc1ccccc1)NC(=O)[C@H](CC(=O)O)NC(=O)[C@H](C)NC(=O)[C@H](CC(C)C)NC(=O)[C@H](CCCNC(=N)N)NC(=O)[C@H](CCC(N)=O)NC(=O)[C@@H](NC(=O)[C@H](C)NC(=O)[C@@H]1CSSC[C@H](NC(=O)[C@H](CCCCN)NC(=O)CC[C@H](NC(=O)CCCCCCCCCCCCCCCCCCC(=O)O)C(=O)O)C(=O)N[C@@H](CC(N)=O)C(=O)N[C@@H]([C@@H](C)O)C(=O)N[C@@H](C)C(=O)N[C@@H]([C@@H](C)O)C(=O)N1)[C@@H](C)O)C(=O)N1CCC[C@H]1C(=O)N[C@@H](CO)C(=O)N[C@@H](CO)C(=O)N[C@H](C(=O)N[C@@H](CC(N)=O)C(=O)N[C@H](C(=O)NCC(=O)N[C@@H](CO)C(=O)N[C@@H](CC(N)=O)C(=O)N[C@H](C(=O)N1CCC[C@H]1C(N)=O)[C@@H](C)O)C(C)C)[C@@H](C)O
notes: also called compound 10
Ratio hCT/hAmylin funct.: 1

B7: N^α1-[(4S)-4-carboxy-4-(19-carboxynonadecanoylamino)butanoyl]-[Glu14,Arg17,Pro21,Pro26,Pro37]-h-amylin (peptide)
peptide: {C20 diacid-γGlu}-KCNTATCATQRLAEFLRHSSPNFGAPLSSTNVGSNTP-NH2
modifications: disulfide 2-7 (inferred)
notes: also called compound 5
Ratio hCT/hAmylin funct.: 1

B11: N^α1-[(4S)-4-carboxy-4-(19-carboxynonadecanoylamino)butanoyl]-[Glu14,Arg17,Pro21,Pro25,Pro28,Pro29,Pro37]-h-amylin (peptide)
peptide: {C20 diacid-γGlu}-KCNTATCATQRLAEFLRHSSPNFGPILPPTNVGSNTP-NH2
modifications: disulfide 2-7
SMILES: CC[C@H](C)[C@H](NC(=O)[C@@H]1CCCN1C(=O)CNC(=O)[C@H](Cc1ccccc1)NC(=O)[C@H](CC(N)=O)NC(=O)[C@@H]1CCCN1C(=O)[C@H](CO)NC(=O)[C@H](CO)NC(=O)[C@H](Cc1c[nH]cn1)NC(=O)[C@H](CCCNC(=N)N)NC(=O)[C@H](CC(C)C)NC(=O)[C@H](Cc1ccccc1)NC(=O)[C@H](CCC(=O)O)NC(=O)[C@H](C)NC(=O)[C@H](CC(C)C)NC(=O)[C@H](CCCNC(=N)N)NC(=O)[C@H](CCC(N)=O)NC(=O)[C@@H](NC(=O)[C@H](C)NC(=O)[C@@H]1CSSC[C@H](NC(=O)[C@H](CCCCN)NC(=O)CC[C@H](NC(=O)CCCCCCCCCCCCCCCCCCC(=O)O)C(=O)O)C(=O)N[C@@H](CC(N)=O)C(=O)N[C@@H]([C@@H](C)O)C(=O)N[C@@H](C)C(=O)N[C@@H]([C@@H](C)O)C(=O)N1)[C@@H](C)O)C(=O)N[C@@H](CC(C)C)C(=O)N1CCC[C@H]1C(=O)N1CCC[C@H]1C(=O)N[C@H](C(=O)N[C@@H](CC(N)=O)C(=O)N[C@H](C(=O)NCC(=O)N[C@@H](CO)C(=O)N[C@@H](CC(N)=O)C(=O)N[C@H](C(=O)N1CCC[C@H]1C(N)=O)[C@@H](C)O)C(C)C)[C@@H](C)O
notes: also called compound 4
Ratio hCT/hAmylin funct.: 1.2

B12: N^-1-[(4S)-4-carboxy-4-(19-carboxynonadecanoylamino)butanoyl]-Gly[Arg1,His14,Arg17,Pro21,Pro27,Pro34]-h-amylin (peptide)
peptide: {C20 diacid-γGlu}-GRCNTATCATQRLAHFLRHSSPNFGAIPSSTNVGPNTY-NH2
modifications: disulfide 3-8 (inferred)
Ratio hCT/hAmylin funct.: 2.9

B13: N^-1-[(4S)-4-carboxy-4-(19-carboxynonadecanoylamino)butanoyl]-Gly[Arg1,Ala14,Arg17,Pro21,Pro27,Pro34]-h-amylin (peptide)
peptide: {C20 diacid-γGlu}-GRCNTATCATQRLAAFLRHSSPNFGAIPSSTNVGPNTY-NH2
modifications: disulfide 3-8 (inferred)
Ratio hCT/hAmylin funct.: 2.1
